Experimental data from US5541078.

Target: synthetic peptide 89-122 of Eg 6 (Echinococcus granulosus)
Assay: ELISA on bound peptide, ascites diluted to 1/100 (control)

Q: “myeloma ascites (SP2/0) (polyclonal serum or antibody)” was tested. Which mean of the optical densities (optical density) did it give?
A: 0.12
